From paper doi:10.1101/2023.10.27.564484, “Insights into Molecular Diversity within the FET Family: Unraveling Phase Separation of the N-Terminal Low Complexity Domain from RNA-Binding Protein EWS” (bioRxiv, 2023) come the findings set out here.

One data set concerns the target EWS^LCD,13YS (UniProt Q01844). Kind of data set: pelleting assay (phase separation). As to conditions: 50 µM protein, 150 mM NaCl, 20 mM Tris pH 7.4; parent: est. 0.36; read off a plot.
The next data set addresses EWS^LCD,7YS (UniProt Q01844). Put plainly: pelleting assay (phase separation). The settings on record: 50 µM protein, 150 mM NaCl, 20 mM Tris pH 7.4; parent: est. 0.36; read off a plot.
Data set [1] deals with the molecule itself. Put plainly: turbidity (phase separation) with brightfield imaging; stock diluted into 20 mM Tris buffer with varied protein, NaCl, pH or temperature in microwell plates; absorbance and brightfield images of droplets.
Data set [2] deals with the molecule itself. Kind of data set: co-sedimentation; pelleting of condensates: stock in CAPS pH 11 diluted into 20 mM Tris pH 7.4-7.5, 150 mM NaCl, 18,000 g for 15 min at room temperature, A280 of the supernatant; protein 25-400 µM, mutants at 50 µM.

As to “EWS low-complexity domain (N-terminal 264 residues of RNA-binding protein EWS) (from UniProt Q01844) 13YS”, the other: fraction soluble with EWS^LCD,13YS came to 1.
As to “EWS low-complexity domain (N-terminal 264 residues of RNA-binding protein EWS) (from UniProt Q01844) 7YS”, the other: fraction soluble in the data set with EWS^LCD,7YS came to 0.92.

B1: EWS low-complexity domain (N-terminal 264 residues of RNA-binding protein EWS) (domain or fragment)
chain: GAMASTDYSTYSQAAAQQGYSAYTAQPTQGYAQTTQAYGQQSYGTYGQPTDVSYTQAQTTATYGQTAYATSYGQPPTGYTTPTAPQAYSQPVQGYGTGAYDTTTATVTTTQASYAAQSAYGTQPAYPAYGQQPAATAPTRPQDGNKPTETSQPQSSTGGYNQPSLGYGQSNYSYPQVPGSYPMQPVTAPPSYPPTSYSSTQPTSYDQSSYSQQNTYGQPSSYGQQSSYGQQSSYGQQPPTSYPPQTGSYSQAPSQYSQQSSSYGQQ
notes: two residue (Gly, Ala) cloning scar left after TEV cleavage; not included in the numbering; 15N-enriched in the intermolecular PRE experiment; unlabelled in turbidity and pelleting assays; also called EWS^LCD; EWS LCD; source: E. coli BL21 DE3 Star, purified (IMAC in urea, TEV cleavage, second IMAC, SEC); not shown: His8, N-terminal, cleaved
In the case of B1, in data set [1], the binding result was “binds”.

B2: EWS^LCD Y208S (domain or fragment)
chain: GAMASTDYSTYSQAAAQQGYSAYTAQPTQGYAQTTQAYGQQSYGTYGQPTDVSYTQAQTTATYGQTAYATSYGQPPTGYTTPTAPQAYSQPVQGYGTGAYDTTTATVTTTQASYAAQSAYGTQPAYPAYGQQPAATAPTRPQDGNKPTETSQPQSSTGGYNQPSLGYGQSNYSYPQVPGSYPMQPVTAPPSYPPTSYSSTQPTSYDQSSSSQQNTYGQPSSYGQQSSYGQQSSYGQQPPTSYPPQTGSYSQAPSQYSQQSSSYGQQ
notes: two residue (Gly, Ala) cloning scar left after TEV cleavage; not included in the numbering; source: E. coli BL21 DE3 Star, purified (IMAC, TEV cleavage, SEC); not shown: His8, N-terminal, cleaved
On to B2, for which, in data set [2], the binding result is “binds”.

B3: EWS^LCD Y172S (domain or fragment)
chain: GAMASTDYSTYSQAAAQQGYSAYTAQPTQGYAQTTQAYGQQSYGTYGQPTDVSYTQAQTTATYGQTAYATSYGQPPTGYTTPTAPQAYSQPVQGYGTGAYDTTTATVTTTQASYAAQSAYGTQPAYPAYGQQPAATAPTRPQDGNKPTETSQPQSSTGGYNQPSLGYGQSNYSSPQVPGSYPMQPVTAPPSYPPTSYSSTQPTSYDQSSYSQQNTYGQPSSYGQQSSYGQQSSYGQQPPTSYPPQTGSYSQAPSQYSQQSSSYGQQ
notes: as for B2
On to B3, for which, in data set [2], the binding result is reported as “binds”.

B4: EWS^LCD Y44S (domain or fragment)
chain: GAMASTDYSTYSQAAAQQGYSAYTAQPTQGYAQTTQAYGQQSYGTSGQPTDVSYTQAQTTATYGQTAYATSYGQPPTGYTTPTAPQAYSQPVQGYGTGAYDTTTATVTTTQASYAAQSAYGTQPAYPAYGQQPAATAPTRPQDGNKPTETSQPQSSTGGYNQPSLGYGQSNYSYPQVPGSYPMQPVTAPPSYPPTSYSSTQPTSYDQSSYSQQNTYGQPSSYGQQSSYGQQSSYGQQPPTSYPPQTGSYSQAPSQYSQQSSSYGQQ
notes: as for B2
Take B4: the binding result in data set [2] is on record as “binds”.

B5: EWS^LCD,Y170S/Y172S (domain or fragment)
chain: GAMASTDYSTYSQAAAQQGYSAYTAQPTQGYAQTTQAYGQQSYGTYGQPTDVSYTQAQTTATYGQTAYATSYGQPPTGYTTPTAPQAYSQPVQGYGTGAYDTTTATVTTTQASYAAQSAYGTQPAYPAYGQQPAATAPTRPQDGNKPTETSQPQSSTGGYNQPSLGYGQSNSSSPQVPGSYPMQPVTAPPSYPPTSYSSTQPTSYDQSSYSQQNTYGQPSSYGQQSSYGQQSSYGQQPPTSYPPQTGSYSQAPSQYSQQSSSYGQQ
notes: two residue (Gly, Ala) cloning scar left after TEV cleavage; not included in the numbering; also called Y170/Y172S; source: E. coli BL21 DE3 Star, purified (IMAC, TEV cleavage, SEC); not shown: His8, N-terminal, cleaved
With B5, the binding result in data set [1] is on record as “binds”.
